These results are taken from the DeepSol protein solubility set.

This series in a line: soluble on expression in E. coli; label from the status in PepcDB or PDB records.
As to “MLSPQTTQVAIIGAGPSGSIAAALLNKHNINCIILEKSTFPRFSIGESLLPACMESIKHAGMLNAVEDACFQFKDGAAFHCNGTFTSFDFTDKFTDGAGTTFQVQRGNFDKVLADCAKEQGVEIRYQHEITDVDVNAEKPLLSVLDENGTPYQIQADFILDASGFGRVLPKLLELEEPSCLPPRRAIFTHIKDNITDESYDRNKILVSVHPTNTQVWYWLIPFSNGTCSFGVVGEPEFFDAYSEDKVTALKQLAEEESNLKHLLNQAEYPNPCGEIMGYSANVSKLFDKNFALLGNAGEFLDPVFSSGVTIAMKSAELAADLLIKQFNQEDVNWQQDYSDKLMKGVNAFRCYVEGWYEGTFQDVIFHENPNPKIKQMICAILAGYAWDESNPFVAEPERRLKVVAELCKPLEHHHHHH”, the “soluble on expression in E. coli” value is given as “not soluble”.
Take “MSLNREFDVTAPNQVWCGDITYIWAQGKWHYLAVVMDLYARRVLGWAFSKKSDTDLVIKALDMAYEQRGKPQGLLFHSDQGAQYGSRQFRKRLWRYRVRQSMSRRGNCYDNSPMARVFRSLKTEWIPAVGYMTAQEAQGDISHYLMHRYNRVRPHQFNDGLAPAQYEKTLTSEGHHHHHH”: the “soluble on expression in E. coli” value is recorded as “not soluble”.
With “MKIIITGEPGVGKTTLVKKIVERLGKRAIGFWTEEVRDPETKKRTGFRIITTEGKKKIFSSKFFTSKKLVGSYGVNVQYFEELAIPILERAYREAKKDRRKVIIIDEIGKMELFSKKFRDLVRQIMHDPNVNVVATIPIRDVHPLVKEIRRLPGAVLIELTPENRDVILEDILSLLERLEHHHHHH”, the “soluble on expression in E. coli” value is listed as “not soluble”.
In the case of “VGSIQPDFLGSVNSSLRYKNWTLRASMDMRFGGMVAIYGSHYGTAYGYLKSSMNGVDAENGGITYTSIWDGLTYDDGIIPEAIMPGGQTINTPSGTYTIAEGGELYADLVNRGIVDPQHASSWNYWNNSWGRAAVWKNNDWFHELNYIALREVSLSYRMPGKIADKIGASGINLTLTGRNLGYLLNSLPNNFNPESLRGTQAGQFMIRSVSPYTASYTFTINATF”, the “soluble on expression in E. coli” value is reported as “not soluble”.
For “MRGSHHHHHHGSPYNVMIVDDAAMMRLYIASFIKTLPDFKVVAQAANGQEALDKLAAQPNVDLILLDIEMPVMDGMEFLRHAKLKTRAKICMLSSVAVSGSPHAARARELGADGVVAKPSGTVSHDLEEKTGGELARTMRTLMAA” the value was “soluble”; for “MGSDKIHHHHHHMIGRKRKYEDPHIRSFHELLSGHNPVLYKKEDLLAYDCDGFTIHKHLPKAVVFPENTREVASIVRYCHDHNLPFLARGAGTGLSGGAIPINGEVIISLVRMKRLLEVDLKNRRAIVEPGYVNLKLTQSIEDKGYYYAPDPSSQYCCTIGGNVAENAGGAHCLKYGVTTNHILGMEVVLPNGDIVEIGKAGILDEPGYDLLGLMTGSEGTLGIVTKITVRILKHPEAKQTVLAYFDKVSDASHTVSDIISEGIVPAALEMMDRIAMEGVEAAAFPIGHLLDAEAVLLIEVDGISAGMDQQIERILTVCRKHHVREVKDEMVGEPKNRLWCHGCHLTRLPRTRWSDPADKASGRAFNDSKNQRNIRATNRKYFSRR”, “not soluble”.
For “MGLHYFLDHKKEDLYKSVQDVYKSDDRPWVVGFSGGKDSTVVVQIIFYALASMSKNELTKPVYIISSDTMVENPKILEHIDTQLLKMKKAANELELPIHVEKVMPNIKNTFWVNLIGRGYPAPRQKFRWCTDRLKIDPANNFILNKVSEFGETVVVLGVRKSESSTRAQVMNTHKVEGKILRRHTKLPNSYVYAPIEDFSLDDVWTYLMQVPNPWGADNADLLALYQDSQGECPLVIDNSTPSCGNSRFGCWVCTVVQEDKSLKGFIESGDEWLTPLLKFRNWLLENRDKEDYREKKRANGSVYLIGDEDNKRLGLGPYTLEHRKEILRKLLETEKQLQHPHQPKYELITIEELKEIRKIWFEKGDWEDSVLAIYEEVYGHRPNWDIEESKFLESEDIKLLKKLCHEEEVEFELVQKLVNLEFQHYGYKHRYGILKDINRILNEEWLHFDQLQQGDNYAD”, the “soluble on expression in E. coli” value is recorded as “not soluble”.
On to “MEIERKFLVLNDDFKAKATAVHNIIQAYLVADERCTVRIRLCNDEAYLTIKGKTNEGGLSRSEYEYSVPFEEAKEMLTLCLPGYIMKQRYCVPHKGHVWEVDVFEGRHKGLVIAEVELATEDESIELPDWIGNEVTGDKRYYNSFIAGIQK”, for which the “soluble on expression in E. coli” value is reported as “soluble”.
Turning to “MSKEPRIKILNGQTVQVRKEDHTIMNPLRWCIGKNFTGEKVELVGYTIPHPSDDISNITIQLCDESLQTPPNLLKKLVEGLECMEAIGAKIASEIERSKGGFNK”, the “soluble on expression in E. coli” value is on record as “not soluble”.
For the sequence “MGSDKIHHHHHHMILDPILDMFRGKAVTIPPLDGAFRPNTRLDDAPTFAELTEPDNLLADGGRLLATSGNAIYSLAAGAEPKVIETFPSPITAQALAPSGDLTVALESGKLLTSGKEVSLPADLSCITALAYAEDGTLWLANGSAEHAPSQWAADLMKKGASGSLWKRDATGGAFRKVAGALAFPYGLLPLGGDVLVSESWRHQLIRFDGATGNRSTVLTHLPGYPARLASAGDGGAWLALFAPRNRLIEFVLQETHYRQDMIDQVPPAYWIAPALASNRSFLEPLQCGGIRTMGIHKPWSPSRSYGLVVRLDARMQPQFSLHSRANGTRHGICSVVEKAGRLFIASKGGDCVLDAGGF”, the “soluble on expression in E. coli” value is reported as “not soluble”.
As for “MGSDKIHHHHHHMVIVARCNHNGSNLTEQFPPINDIRSNSRQLVRELGFMGGDFAGTDLPPSSVHALIEIEACPGITAKDLGKLLRLEKSSVSRMLRKLILSGDIVEQTDDVDSRIKRLRLTGQGREKVSGINGFANRQVSGALAQLTATDAHTILEGLRLYAGALGARTGTPASTVDIKQGYRPGIIARITQMHALYYARTSGFGQRFESVVAEGLAAFCNRLENPRNAIWVAMRGQEIIGSVAIDGEDLGADIAHLRWFIVDDGIRGGGVGRRLLATALAFADQAGFAETHLWTFNGLLAARHLYETHGFTCTEEYPGSQWGSEVLEQRFIRPRPE”, the “soluble on expression in E. coli” value is given as “not soluble”.
Turning to “MNIEALERLRGWMRAKGFSRFYVVRPENFAWLVGGANTLGMGESVAYLEVGEEVVLHTSAIEHPRMVEEEAPGLPARVHPWYAFPPPPGPNDLEHDLTPLRLVLSREAQGAFTHLGREAAMAVGEVVRSARPEWTEYALAGALAEALWGRGLRPLLLLVAVDERLFRYRHPLPKGKPLGRAFMAVVCAERRGLVANLTRMASFGHGEVEARYRKVLEVEAAALSASRPGATLGEVFAALQGAYARVGFPRAWGEHHQGGVGGYRSREVVATPGHPLVLEAGMVLAWNPSLSGAKVEDTFLLTEGGLLNLTEDPFWPAVEVEGRRRPDLWRGGG”, the “soluble on expression in E. coli” value was “soluble”.
Consider “GTDGTKPECTLCGVKYSARLSIRDHIFSKQHISKVRETVGSQLDREKD”, for which the “soluble on expression in E. coli” value is listed as “soluble”.
In the case of “MLEQILLGTYTRRASQGIYKIALDTTQGRLTEATLLLEETSPTYLALSQKGELFSVTSVDGEGGTAAYQPEMDHFNLLNKVTEEGAPPCYVAVDENRQLVYAANYHQGIVHVYRILEDGSLEDADKVIHTEPTGPHENQNNAHVHYTDLTPDQRLVVCDLGTDRVYTYNVSLDGKLSEIAQFVTEPGTGPRHLVFHPTKSLAYLFGELDSTVSVLSYDETDGSFTELQKVSTLPADYDAFNGGAAIRISSDGRFLYASNRGHNSIAVYAVSENGEAIERIQLISTEGDIPRDFDLDPSEDFIVVANQDSDNLTLYRRNQETGLLEMIQKDVAVPECVCVLFVLEHHHHHH”, the “soluble on expression in E. coli” value is recorded as “soluble”.
Take “MSMSSMSSPSSAVCSPDHFSPSDHLCYVQCNFCQTILAVNVPYTSLFKTVTVRCGCCTNLLSVNMRSYVLPASNQLQLQLGPHSYFNPQDILEELRDAPSNMNMMMMNQHPTMNDIPSFMDLHQQHEIPKAPPVNRPPEKRQRVPSAYNRFIKEEIQRIKAGNPDISHREAFSAAAKNWAHFPHIHFGLVPDNQPVKKTNMPQQEGEDNMVMKEGFYAPAAANVGVTPY”: the “soluble on expression in E. coli” value is reported as “soluble”.
Turning to “MGTLLIDVDGTVVDSYPGIREAFIHSMTSVGIPVPEESWLRRIPGPPMVETMRALGQSDSVTAAALACFRQQYDQISWRNSQLFDGWHDALSEWRSQGIRLFTATSKNEHLARLTLEYLGVADLFDFIGGADPTVGRETKADVIAYVLATTETSEHSPILMVGDRSHDTEGAAAFGIPTMLVTWGYGNEQEWSHADYHARNMAEAKGIVRDFFN”, the “soluble on expression in E. coli” value was “not soluble”.
Consider “MDVQKKAQMVIEEVKKAIVGKDNVLKLVLATILADGHILIEDLPGLAKTLMAKSFAKALGLEFKRVQFTPDLLPSDILGVNVFNQKTLEFEFKKGPVFTNILLADEINRAPPKTQSALLEAMQERQVTIEGVTYKLPKPFIVIATQNPIEQEGTYPLPEAQLDRFLVRLRMGYPSKDEEKEILRRRIERKQDEVEIETVLSPKDVLKMQREVEDVYVSDAIIEYITSLVWATREDKRDIEIGVSPRGSLALLKLSRAYAAIEGRDYVIPDDVKAVAIPALSHRIILKRELWYTRVSQESVIEKILERVPVPKFE”, for which the “soluble on expression in E. coli” value is on record as “soluble”.
As for “MRLEVFCEDRLGLTRELLDLLVLRGIDLRGIEIDPIGRIYLNFAELEFESFSSLMAEIRRIAGVTDVRTVPWMPSEREHLALSALLEALPEPVLSVDMKSKVDMANPASCQLFGQKLDRLRNHTAAQLINGFNFLRWLESEPQDSHNEHVVINGQNFLMEITPVYLQDENDQHVLTGAVVMLRSTIRMGR”, the “soluble on expression in E. coli” value is given as “soluble”.
Take “MATVKIKFRPSSVDGKEGTVYYQVIHVRVARQISTSYRLFPAEWDKRRARIVAAPSDEGRRQHLSLLEGKIMEDTDRLEGIITTLERRRGAFTADDVVSAFNGGHYSLSFPVFMREVINGLKRLGKIRTSETYTSTLNSFIRFMEGRDVLPDDMDSDLMVAYEAWLESGGVSMNTISFYMRNLRAVYNRAVEKGLTVQRFPFKHVYTGVEKTTKRAVPLHVIKRLKSLDLSFEPAKAYARDMLLFSFYTRGMSMVDMAFLKKKDLNNGILSYRRKKTGQQLLIKWEPCMQEIVDRYNIPGSPYLLSVIDRPGTDERKQYINASHRINRHLKVLGKELGMSVPLTHYVARHSWASAARSKNIPISVISEGMGHDSETTTRIYLASLDTATIDRANKLILKSLQI”: the “soluble on expression in E. coli” value is “not soluble”.
Regarding “MGSDKIHHHHHHLSADHNAFRRALTERWGKAFGEPVIHEDPRTRSLCFGAPGVQSSMRTSDPLELDLPYTRAMMSFQLFCPDPKDILIVGLGGGSLSKYCFHKFPSARVTTVEIDERVIALRDAFFIPPESERFRIVHADAAAYLPDKVGLADVILLDGFDASGLPASLSSQYFYDCCHAALRDEGVLVANLLSSDPRLGAHLDRIHRACHGKLFRTMARREGNTIAIGIRQATWPGWPDLYARAEAITASTGLDLCRYVKKMERHHRVEPVSEHPSSDTLAVEQNR”, the “soluble on expression in E. coli” value is reported as “not soluble”.
Consider “MSLCRRRLATWLLDGSQPPTLLLPEQEGINGIRFPIWLDENGKRVAADCPQARQEMINVWPLPLEPWLPASERRAVRLPPASTSCPPYGHDAQLPLQLTGVRDGAIIKRLPGAAEATLPLQSSGGAGERWWFLNGEPLTERGRNVTLHLTDKGDYQLLVMDDVGQIATVKFVMQEGHHHHHH”, for which the “soluble on expression in E. coli” value is listed as “soluble”.
Take “MPIMSIISCKIMQDEIIWILENDSSIDETIIIDSENILEFVEKLDKVNLQYKVLSLEDISSLAEIRSECKNYTVMIHLMELGLHRSPKELKIKVYETIKTLAPFSSGILLFYGLCGNVLGDVEKDFERSSTSCPVRILKDKDHRIVDDCIGATVGGVNNYLRILKSVSDAGTYLFTPMYSKGWRELLDLNKLNKDPSKALKLMKKTHEMIGYKRVAKINTGLEYTENFDASIQEFAELFDFEILEFDDGNQKIFEDCYNELKAELLEHHHHHH”: the “soluble on expression in E. coli” value is listed as “not soluble”.
